T1: Peptide 1: Lys-Lys-His-Ala-Asp-Asp-Gly-Ala-Met-Pro-Met-Ser-Pro-Gly-Val-Ala (mutant IRS-1 peptide)
T1 chain: KKHADDGAMPMSPGVA

T2: Peptide 2: Arg-Thr-Glu-Ser-Ile-Thr-Ala-Thr-Ser-Pro-Ala-Ser-Met-Val-Gly-Gly-Lys-Pro (second IRS-1 peptide)
T2 chain: RTESITATSPASMVGGKP


Key:
[1] = tested on: insulin receptor substrate-1 (IRS-1) peptide Y^608
[2] = biological target: T1, Peptide 1: …
[3] = biological target: T2, Peptide 2: …
[4] = biological target: insulin receptor substrate-1 (IRS-1) peptide Y^608; remark: listed apart in the source

| Molecule | IRS phosphorylation by BVR (32P kinase assay) [1] | peptide phosphorylation by BVR (32P retained on P81 filters) [2] | peptide phosphorylation by BVR (32P retained on P81 filters) [3] | IRS-1 phosphorylation by BVR (32P kinase assay) [4] | peptide phosphorylation by BVR (32P retained on P81 filters) [4] | phosphorylation of BVR by IRK in the presence of increasing molar ratio of IRS/BVR [4] |
| --- | --- | --- | --- | --- | --- | --- |
| GST-hBVR G17 mutant (GVGRA to GVARA), ATP binding domain mutant | G^17 mutation, for the most part, prevented IRS phosphorylation by BVR |  |  |  |  |  |
| GST-hBVR fusion protein, wild type (human biliverdin reductase fused to glutathione-S-transferase) (protein) MNAEPERKFGVVVVGVGRAGSVRMRDLRNPHPSSAFLNLIGFVSRRELGSIDGVQQISLEDALSSQEVEVAYICSESSSHEDYIRQFLNAGKHVLVEYPMTLSLAAAQELWELAEQKGKVLHEEHVELLMEEFAFLKKEVVGKDLLKGSLLFTSDPLEEDRFGFPAFSGISRLTWLVSLFGELSLVSATLEERKEDQYMKMTVCLETEKKSPLSWIEEKGPGLKRNRYLSFHFKSGSLENVPNVGVNKNIFLKDQNIFVQKLLGQFSEKELAAEKKRILHCLGLAEEIQKYCCSRK |  | both the mutated and unmutated peptides were phosphorylated to about the same extent (1049±78 cpm and 1081±183 cpm respectively) | this peptide is also a suitable substrate for BVR (1198±230 cpm) | IRS-1 is a substrate for BVR | both the mutated and unmutated peptides were phosphorylated to about the same extent (1049±78 cpm and 1081±183 cpm respectively) | in the presence of increasing amounts of IRS, there was an increase in phosphorylation of BVR by IR up to equimolar ratio of IRS/BVR |
